We go through seven molecules from patent publication US20240344030A1 (CARTESIAN THERAPEUTICS, published 2024).

Substitutions are numbered along the chain they refer to.

Test [1] concerns the target T1, Human CD3ε&CD3δ heterodimeric Fc Chimera (ACRO Biosystems CDD-H52W0) (human, UniProt P07766 22-126, Disulfide-linked heterodimer through the Fc parts that are left off.).
T1 construct: Disulfide-linked heterodimer, bought; also called rhCD3ε/δ-Fc; rhCD3ε/CD3δ-Fc
The experiment in a line: BLI (Octet) scouting; rhCD3ε/δ-Fc captured on AHC sensor; analyte 2000 nM; 1:1 local fit.

Test [2] has as its target T2, rhBCMA-Fc Chimera (R&D Systems 193-BC-050) (human, Disulfide-linked homodimer (the 25th table, row 5); one copy of the chain is given.).
T2 construct: Disulfide-linked dimer, bought; also called immobilized BCMA
The experiment in a line: BLI (Octet) scouting; rhBCMA-Fc captured on AHC sensor; analyte 100 nM; 1:1 local fit.

Test [3] has as its target T2, rhBCMA-Fc Chimera (R&D Systems …). The experiment in a line: BLI full kinetics; rhBCMA-Fc captured on AHC sensor; analyte 1.56-50 nM; bivalent (avidity).
Test [4] has as its target T1, Human CD3ε&CD3δ heterodimeric Fc …. The experiment in a line: BLI full kinetics; rhCD3ε/δ-Fc captured on AHC sensor; analyte 15.6-125 nM; monovalent (affinity).
A further test addresses T3, CD3 on (CD3+) T cells (human, UniProt P07766 23-207; P09693 23-182; P04234 22-171; P20963 22-164).
T3 construct: whole, on cells; also called CD3 protein multi-subunit complex
The experiment in a line: flow cytometry; 10 µg/mL scFv on 50,000 CD3+ T cells; anti-FLAG FITC detection. Background: In flow cytometry, cells or beads pass a laser one at a time.

As a reminder, the koff is the first-order rate constant of dissociation. For orientation: kon means the rate constant with which the complex forms. High values mean fast association, low ones slow association.

T1 sequence (P07766 22-126 limits assumed, stated change not applied, chain 1 of 2): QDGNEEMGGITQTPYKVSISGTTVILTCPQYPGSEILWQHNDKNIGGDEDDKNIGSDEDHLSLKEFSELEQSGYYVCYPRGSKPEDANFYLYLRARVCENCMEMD
T1 sequence (delta, as listed by the source mutant limits assumed, chain 2 of 2): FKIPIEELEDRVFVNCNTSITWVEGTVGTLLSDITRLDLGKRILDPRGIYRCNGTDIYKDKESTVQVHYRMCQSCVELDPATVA
T3 sequence (P07766 23-207, form in doubt, chain 1 of 4): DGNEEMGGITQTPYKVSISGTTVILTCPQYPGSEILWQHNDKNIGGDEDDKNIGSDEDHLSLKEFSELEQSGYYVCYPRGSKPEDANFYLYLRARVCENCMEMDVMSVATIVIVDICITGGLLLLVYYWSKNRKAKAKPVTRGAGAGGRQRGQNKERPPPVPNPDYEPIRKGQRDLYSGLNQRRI
T3 sequence (P09693 23-182, form in doubt, chain 2 of 4): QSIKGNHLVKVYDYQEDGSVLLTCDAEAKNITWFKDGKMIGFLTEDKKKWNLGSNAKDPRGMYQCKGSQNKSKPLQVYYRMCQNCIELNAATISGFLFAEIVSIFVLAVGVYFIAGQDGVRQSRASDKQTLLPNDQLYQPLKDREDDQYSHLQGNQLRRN
T3 sequence (P04234 22-171, form in doubt, chain 3 of 4): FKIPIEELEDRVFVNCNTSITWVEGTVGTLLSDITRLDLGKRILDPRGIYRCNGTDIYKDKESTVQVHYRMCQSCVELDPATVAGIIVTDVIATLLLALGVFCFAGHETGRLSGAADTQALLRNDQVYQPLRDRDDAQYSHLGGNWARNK
T3 sequence (P20963 22-164, form in doubt, chain 4 of 4): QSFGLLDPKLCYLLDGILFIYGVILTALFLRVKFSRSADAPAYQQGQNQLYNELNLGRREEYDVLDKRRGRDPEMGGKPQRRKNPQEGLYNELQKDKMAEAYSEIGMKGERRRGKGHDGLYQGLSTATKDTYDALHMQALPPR
T2 sequence (chain, as listed by the source mutant limits assumed): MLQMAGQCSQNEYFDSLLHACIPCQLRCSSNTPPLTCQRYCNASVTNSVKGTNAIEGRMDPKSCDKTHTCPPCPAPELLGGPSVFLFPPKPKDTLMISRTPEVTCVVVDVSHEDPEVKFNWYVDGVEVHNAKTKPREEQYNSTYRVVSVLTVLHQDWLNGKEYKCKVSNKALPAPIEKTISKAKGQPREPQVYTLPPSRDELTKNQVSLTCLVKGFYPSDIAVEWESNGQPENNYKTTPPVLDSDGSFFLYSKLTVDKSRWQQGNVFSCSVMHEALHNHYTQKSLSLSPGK

B1: bispecific antibody of SEQ ID NO: 138 (with a C-terminal Myc-Flag tag of SEQ ID NO: 141) (bispecific antibody)
chain: DIVLTQSPASLAVSPGQRATISCRASESVSFLGINLIHWYQQKPGQPPKLLIYLASNLETGVPARFSGSGSGTDFTLTISSVEPEDTANYYCLQSRTLPRTFGQGTKVEIKGSTSGSGKPGSGEGSTKGQIQLVQSGPELKKPGGSVKISCKASGYTFTSYSINWVRQAPGKGLEWVGWINTETREPAYAQGFTGRFTFSADTSKSMAYLQINSLRAEDTAVYYCALDYLYSLDFWGQGTLVTVSSGGGGSQVQLVQSGAEVKKPGASVKVSCKASGYTFTRYTMHWVRQAPGQGLEWIGYINPSKGYTNYNQKFKGRVTMTADKSTSTAYMELSSLRSEDTAVYYCARYYDDHYSLDYWGQGTLVTVSSGGGGSGGGGSGGGGSGGGGSEIVMTQSPATLSLSPGERVTLSCRASSSVSYMNWYQQKSGTSPKRWIYDTSKVASGVPYRFSGSGSGTDFTLTISSLQAEDEATYYCQQWSSNPLTFGQGTKLEIKSSGGSGGSGGSGGSGGSGGSGGSGGSGGSGSDIVLTQSPASLAVSPGQRATISCRASESVSFLGINLIHWYQQKPGQPPKLLIYLASNLETGVPARFSGSGSGTDFTLTISSVEPEDTANYYCLQSRTLPRTFGQGTKVEIKGSTSGSGKPGSGEGSTKGQIQLVQSGPELKKPGGSVKISCKASGYTFTSYSINWVRQAPGKGLEWVGWINTETREPAYAQGFTGRFTFSADTSKSMAYLQINSLRAEDTAVYYCALDYLYSLDFWGQGTLVTVSSGGSLEQKLISEEDLAANDILDYKDDDDKV
notes: Single chain: anti-BCMA scFv, anti-CD3 scFv, anti-BCMA scFv; also called DC10xP15-MycDDK; DC10xP15
As for B1, the Kd in test [1] is 9.76 nM; in test [2], 0.116 nM; in test [3] it was under 0.001 nM; in test [4], 3.02 nM. The koff in test [3] is under 1e-07 s⁻¹; in test [4], 0.00199 s⁻¹. Moreover, the values for the kon in test [3] and in test [4] were 226000 M⁻¹ s⁻¹ and 660000 M⁻¹ s⁻¹, respectively.

B2: Vulcanodon-3 anti-CD3 scFv (SEQ ID NO: 4), FLAG and His-tagged version (scFv)
scFv: QVQLVQSGAEVKKLGASVKVSCKASGYTFTRYTMHWVKQAPGQGLEWIGYINPSRGYTNYNQKFQGRVTMTRDTSISTAYMELSRLRSDDTAVYYCARYYDDHYSLDYWGQGTLVTVSSGGGGSGGGGSGGGGSGGGGSDIQMTQSPSSLSASVGDRVTITCRASSSVSYMNWYQQKSGTSPKRWIYDTSKVASGVPYRFSGSGSGTDFTLTISSLQPEDFATYYCQQWSSNPLTFGAGTKLEIK
notes: also called Var 3; not shown: FLAG and His tags
B2: the “CD3 Binding (increase in MFI)” value with CD3 on (CD3+) T cells worked out at 24 MFI.

B3: Vulcanodon-1 anti-CD3 scFv (SEQ ID NO: 2), FLAG and His-tagged version (scFv)
scFv: QVQLVQSGAEVKKPGASVKVSCKASGYTFTRYTMHWVRQAPGQGLEWIGYINPSKGYTNYNQKFKGRVTMTADKSTSTAYMELSSLRSEDTAVYYCARYYDDHYSLDYWGQGTLVTVSSGGGGSGGGGSGGGGSGGGGSEIVMTQSPATLSLSPGERVTLSCRASSSVSYMNWYQQKSGTSPKRWIYDTSKVASGVPYRFSGSGSGTDFTLTISSLQAEDEATYYCQQWSSNPLTFGQGTKLEIK
notes: also called Var 1; not shown: FLAG and His tags
For B3, the “CD3 Binding (increase in MFI)” value with CD3 on (CD3+) T cells was 20 MFI.

B4: Vulcanodon-4 anti-CD3 scFv (SEQ ID NO: 5), FLAG and His-tagged version (scFv)
scFv: B3 scFv with R38K, A40R, E140Q, M143L, T149I, L150M, L152A, R157K, L160M, S161T
notes: also called Var 4; not shown: FLAG and His tags
Consider B4, for which the “CD3 Binding (increase in MFI)” value with CD3 on (CD3+) T cells came to 27 MFI.

B5: Vulcanodon-2 anti-CD3 scFv (SEQ ID NO: 3), FLAG and His-tagged version (scFv)
scFv: B3 scFv with K55R, L114T, Q238A
notes: also called Var 2; not shown: FLAG and His tags
On to B5, for which the “CD3 Binding (increase in MFI)” value in the test with CD3 on (CD3+) T cells turned out to be 24 MFI.

B6: Vulcanodon-C1 anti-CD3 scFv (SEQ ID NO: 7), FLAG and His-tagged version (scFv)
scFv: QVQLQQSGAELARPGASVKMSCKTSGYTFTGYYMHWVKQRPGQGLEWIGYINPSRGYTNYNQKFKDKATLTTDKSSSTAYMQLSSLTSEDSAVYYCARYYDDHYSLDYWGQGTTLTVSSGGGGSGGGGSGGGGSGGGGSQIVLTQSPAIMSASPGEKVTMTCRASQSISSYLNWYQQKSGTSPKRWIYDTSKVASGVPYRFSGSGSGTSYSLTISSMEAEDAATYYCQQWSSNPLTFGAGTKLELK
notes: also called Var CDR1; not shown: FLAG and His tags
On to B6, for which the “CD3 Binding (increase in MFI)” value with CD3 on (CD3+) T cells is about 0 MFI.

B7: Vulcanodon-C2 anti-CD3 scFv (SEQ ID NO: 8), FLAG and His-tagged version (scFv)
scFv: QVQLQQSGAELARPGASVKMSCKTSGYTFTRYTMHWVKQRPGQGLEWMGIINPSGGSTSYAQKFKDKATLTTDKSSSTAYMQLSSLTSEDSAVYYCARYYDDHYSLDYWGQGTTLTVSSGGGGSGGGGSGGGGSGGGGSQIVLTQSPAIMSASPGEKVTMTCRASSSVSYMNWYQQKSGQAPRLLIYGASTRATGIPYRFSGSGSGTSYSLTISSMEAEDAATYYCQQWSSNPLTFGAGTKLELK
notes: also called Var CDR2; not shown: FLAG and His tags
On to B7, for which the “CD3 Binding (increase in MFI)” value in the test with CD3 on (CD3+) T cells is about 0 MFI.
